This passage reports K0.5, kcat and kcat/Km results from paper PMC4496674, “Tackling Critical Catalytic Residues in Helicobacter pylori L-Asparaginase” (Biomolecules, 2015).

Substrate in data set [1]: NC(=O)CC[C@H](N)C(=O)O
Kind of data set: purified protein. Particulars: 50 mM HEPES pH 7.5, 37 °C, sigmoidal, cooperative.

Substrate in data set [2]: NC(=O)C[C@H](N)C(=O)O
Put plainly: purified protein. Conditions: 50 mM HEPES pH 7.5, 37 °C, hyperbolic.

B1: HpASNase (Helicobacter pylori 26695) (protein)
chain: MAQNLPTIALLATGGTIAGSGASASLGSYKSGELGIKELLKAIPSLNRLARIQGEQISNIGSQDMNEEVWFKLAKRAQELLDDSRIQGVVITHGTDTLEESAYFLNLVLRSTKPVVLVGAMRNAASLSADGALNLYNAVSVALNEKSANKGVLVVMDDNIFSAREVIKTHTTHTSTFKALNSGAIGSVYYGKTRYYMQPLRKHTTESEFSLSQLKTPLPKVDIIYTHAGMTPDLFQASLNSHAKGVVIAGVGNGNVSAGFLKAMQEASQMGVVIVRSSRVNSGEITSGEIDDKAFITSDNLNPQKARVLLQLALTKTNNKEKIQEMFEEY
Broadly, the kcat is the number of substrate molecules converted per active site and unit of time at saturation. Broadly, the kcat/Km is the second-order rate constant that governs catalysis at low substrate concentration. On to B1, for which, in data set [1], the K0.5 is reported as 46.4 ± 4.02 mM, the kcat was determined as 22.1 ± 1.39 s⁻¹ and the kcat/Km turned out to be 470 ± 100 M⁻¹ s⁻¹. Also, in data set [2], the K0.5 turned out to be 0.29 ± 0.03 mM, the kcat was 19.3 ± 0.56 s⁻¹ and the kcat/Km amounted to 66400 M⁻¹ s⁻¹.
